Experimental findings from US20190218308A1 (INNATE PHARMA, published 2019) are described below.

Experiment [1] addresses T1, CD39 mutant 15 (human, UniProt P49961 1-510).
T1 construct: Expressed on Hek-293T cells; also called M15
T1 chain: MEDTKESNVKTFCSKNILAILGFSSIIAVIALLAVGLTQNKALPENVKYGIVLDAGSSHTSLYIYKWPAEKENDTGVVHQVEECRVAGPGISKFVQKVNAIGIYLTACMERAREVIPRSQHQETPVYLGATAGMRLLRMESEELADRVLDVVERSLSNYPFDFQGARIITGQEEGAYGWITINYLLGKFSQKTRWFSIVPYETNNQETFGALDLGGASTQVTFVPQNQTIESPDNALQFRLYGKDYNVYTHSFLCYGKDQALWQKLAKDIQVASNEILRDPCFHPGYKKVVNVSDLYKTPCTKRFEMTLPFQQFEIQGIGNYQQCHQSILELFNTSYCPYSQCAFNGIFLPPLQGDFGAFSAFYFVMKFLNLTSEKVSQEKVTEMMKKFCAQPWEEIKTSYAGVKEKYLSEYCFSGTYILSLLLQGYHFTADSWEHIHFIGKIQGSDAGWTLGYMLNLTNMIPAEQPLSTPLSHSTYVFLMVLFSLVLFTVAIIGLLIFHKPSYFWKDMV
The experiment can be described thus: flow cytometry, Hek-293T cells transfected with CD39 mutant 15 (panel M15), table under the panel; unstained (US) 8,98; antibody concentration not shown. The method, then:
(§1) Mutants were transfected in Hek-293T cells, as shown in the table 1, using numbering of SEQ ID NO: 2. […] Mutant 19 includes substitutions at residues R138, M139 and E142.
(§2) Mutants were transfected in Hek-293T cells, as shown in the table 1, using numbering of SEQ ID NO: 2. Dose-ranges of test antibodies (10-2.5-0.625-0.1563-0.0391-0.0098-0.0024-0.0006 μg/ml) are tested on the 20 generated mutants by flow cytometry.

For experiment [2], the target named is T2, CD39 mutant 19 (human, UniProt P49961 1-510).
T2 construct: Expressed on Hek-293T cells; also called M19
T2 chain: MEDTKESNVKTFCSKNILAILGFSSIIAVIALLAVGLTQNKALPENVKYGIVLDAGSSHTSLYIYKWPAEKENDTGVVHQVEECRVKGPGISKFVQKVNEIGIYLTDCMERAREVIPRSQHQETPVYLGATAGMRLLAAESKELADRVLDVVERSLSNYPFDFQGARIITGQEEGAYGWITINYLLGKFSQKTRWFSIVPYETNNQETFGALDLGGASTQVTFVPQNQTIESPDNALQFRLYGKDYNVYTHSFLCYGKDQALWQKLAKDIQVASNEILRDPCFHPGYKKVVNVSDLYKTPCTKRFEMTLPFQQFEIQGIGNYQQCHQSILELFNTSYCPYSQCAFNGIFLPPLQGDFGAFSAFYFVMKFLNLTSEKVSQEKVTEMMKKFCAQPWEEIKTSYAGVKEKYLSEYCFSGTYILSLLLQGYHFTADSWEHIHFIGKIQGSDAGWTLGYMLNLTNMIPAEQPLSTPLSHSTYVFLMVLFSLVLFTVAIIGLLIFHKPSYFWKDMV
In words: flow cytometry, Hek-293T cells transfected with CD39 mutant 19 (panel M19), Comp-Alexa Fluor 647-A.

In experiment [3] the target is T3, CD39 mutant 5 (human, UniProt P49961 1-510).
T3 construct: Expressed on Hek-293T cells; also called M5
T3 chain: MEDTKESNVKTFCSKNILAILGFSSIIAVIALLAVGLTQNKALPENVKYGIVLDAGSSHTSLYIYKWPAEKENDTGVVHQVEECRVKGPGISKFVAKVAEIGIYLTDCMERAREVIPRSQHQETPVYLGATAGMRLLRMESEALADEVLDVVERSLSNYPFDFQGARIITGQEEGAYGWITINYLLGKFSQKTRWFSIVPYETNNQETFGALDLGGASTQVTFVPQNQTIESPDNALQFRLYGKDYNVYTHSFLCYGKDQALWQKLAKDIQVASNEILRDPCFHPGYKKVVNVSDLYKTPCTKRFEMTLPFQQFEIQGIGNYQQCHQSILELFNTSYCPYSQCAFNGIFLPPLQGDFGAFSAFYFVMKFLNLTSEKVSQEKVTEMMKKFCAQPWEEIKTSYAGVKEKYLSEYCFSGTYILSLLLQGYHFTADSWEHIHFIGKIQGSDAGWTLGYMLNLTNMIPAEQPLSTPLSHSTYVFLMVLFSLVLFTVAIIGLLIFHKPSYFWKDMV
The experiment can be described thus: flow cytometry, Hek-293T cells transfected with CD39 mutant 5 (panel M5), Comp-Alexa Fluor 647-A. The method, then:
as §1, §2
On the technique in general: Flow cytometry measures light scatter and fluorescence of single cells or particles in a stream.

Experiment [4] addresses T1, CD39 mutant 15. In words: flow cytometry, Hek-293T cells transfected with CD39 mutant 15 (panel M15); antibody concentration not shown.
In experiment [5] the target is T2, CD39 mutant 19. The experiment can be described thus: flow cytometry, Hek-293T cells transfected with CD39 mutant 19 (panel M19); antibody concentration not shown. The method, then: as §1, §2
Experiment [6] has as its target T3, CD39 mutant 5. The experiment can be described thus: flow cytometry, Hek-293T cells transfected with CD39 mutant 5 (panel M5); antibody concentration not shown.
The target of experiment [7] is T3, CD39 mutant 5. The experiment can be described thus: flow cytometry, Hek-293T cells expressing mutant 5.
The target of experiment [8] is T4, CD39 mutant 11 (human, UniProt P49961 1-510).
T4 construct: Expressed on Hek-293T cells
T4 sequence: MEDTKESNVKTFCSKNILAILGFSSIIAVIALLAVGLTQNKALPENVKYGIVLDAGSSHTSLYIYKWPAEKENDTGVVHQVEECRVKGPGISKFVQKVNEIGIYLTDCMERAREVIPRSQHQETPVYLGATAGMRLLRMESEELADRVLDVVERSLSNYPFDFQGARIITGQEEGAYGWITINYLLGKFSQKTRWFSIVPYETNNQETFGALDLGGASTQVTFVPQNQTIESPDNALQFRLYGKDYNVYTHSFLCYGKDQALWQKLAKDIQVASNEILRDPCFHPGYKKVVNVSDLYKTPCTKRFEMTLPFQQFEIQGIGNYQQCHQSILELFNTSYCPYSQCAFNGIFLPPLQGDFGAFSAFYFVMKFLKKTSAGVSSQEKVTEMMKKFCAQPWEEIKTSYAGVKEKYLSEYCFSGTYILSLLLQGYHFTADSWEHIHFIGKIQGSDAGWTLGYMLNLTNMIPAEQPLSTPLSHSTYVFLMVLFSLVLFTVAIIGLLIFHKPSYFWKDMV
The experiment can be described thus: flow cytometry, Hek-293T cells expressing mutant 11.

The target in experiment [9] is T2, CD39 mutant 19. The experiment can be described thus: flow cytometry, Hek-293T cells expressing mutant 19.
The target of experiment [10] is T1, CD39 mutant 15. In words: flow cytometry, Hek-293T cells expressing mutant 15.

B1: antibody I-396 (antibody, V domains shown)
VH: EVQLQQSGAELVKPGASVKLSCIVSGFNIKDTYINWVKQRPEQGLEWIGRIDPANGNTKYDPKFQGKATMTSDTSSNTAYLHLSSLTSDDSAVYYCARWGYDDEEADYFDSWGQGTTLTVSS
VL: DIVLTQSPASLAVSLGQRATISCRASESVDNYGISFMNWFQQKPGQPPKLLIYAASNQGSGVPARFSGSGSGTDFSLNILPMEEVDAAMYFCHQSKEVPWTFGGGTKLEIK
notes: Hybridoma antibody purified with protein A
Take B1: the “Median : Comp-Alexa Fluor 647-A” value in [1] is 35.9. For the same molecule, the binding result in experiment [2] was “binds”; in experiment [3], “binds”; in experiment [4], “no binding”.

B2: antibody I-395 (antibody, V domains shown)
VH: EVQLQQSGPELVKPGASVRMSCKASGYTFTDYNMHWVKKNHGKGLEWIGYINPNNGGTTYNQKFKGKATLTVNTSSKTAYMELRSLTSEDSAVYYCTRGGTRFASWGQGTLVTVSA
VL: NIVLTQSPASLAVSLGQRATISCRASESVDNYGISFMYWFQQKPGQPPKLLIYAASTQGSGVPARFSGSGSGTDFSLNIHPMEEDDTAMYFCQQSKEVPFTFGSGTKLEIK
notes: as for B1
B2: the binding result in [5] and in [6] was “no binding” in each case. The “Median : Comp-Alexa Fluor 647-A” value in [1] turned out to be 5750.

B3: antibody I-399 (antibody, V domains shown)
VH: PVQLQQPGAEVVMPGASVKLSCKASGYTFTSFWMNWMRQRPGQGLEWIGEIDPSDFYTNSNQRFKGKATLTVDKSSSTAYMQLSSLTSEDSAVYFCARGDFGWYFDVWGTGTSVTVSS
VL: EIVLTQSPTTMTSSPGEKITFTCSASSSINSNYLHWYQQKPGFSPKLLIYRTSNLASGVPTRFSGSGSGTSYSLTIGTMEAEDVATYYCQQGSSLPRTFGGGTKLEIK
notes: as for B1
Regarding B3, the binding result in experiment [7] is “binds”; in experiment [8], “no binding (tested: dose range up to 10 µg/ml)”; in experiment [9], “binds”; in experiment [10], “binds”.
